From patent US20220204643A1 (published 2022)
Each block holds one binder with its values, some of them ahead of it.

Assays:
[1] = biological target: T1, dual specificity phosphatase 12 (human, UniProt Q9UNI6 1-340)
T1 construct: HuProt array protein, full-length recombinant from yeast; also called DUSP12

[2] = biological target: T2, actinin alpha 1, transcript variant 2 (human, UniProt P12814 1-892)
T2 construct: HuProt array protein, full-length recombinant from yeast; also called ACTN1

[3] = biological target: T3, butyrophilin subfamily 1 member A1 (human, UniProt Q13410 27-526); test: protein array
T3 construct: on protein array; also called BTN1A1
T3 sequence: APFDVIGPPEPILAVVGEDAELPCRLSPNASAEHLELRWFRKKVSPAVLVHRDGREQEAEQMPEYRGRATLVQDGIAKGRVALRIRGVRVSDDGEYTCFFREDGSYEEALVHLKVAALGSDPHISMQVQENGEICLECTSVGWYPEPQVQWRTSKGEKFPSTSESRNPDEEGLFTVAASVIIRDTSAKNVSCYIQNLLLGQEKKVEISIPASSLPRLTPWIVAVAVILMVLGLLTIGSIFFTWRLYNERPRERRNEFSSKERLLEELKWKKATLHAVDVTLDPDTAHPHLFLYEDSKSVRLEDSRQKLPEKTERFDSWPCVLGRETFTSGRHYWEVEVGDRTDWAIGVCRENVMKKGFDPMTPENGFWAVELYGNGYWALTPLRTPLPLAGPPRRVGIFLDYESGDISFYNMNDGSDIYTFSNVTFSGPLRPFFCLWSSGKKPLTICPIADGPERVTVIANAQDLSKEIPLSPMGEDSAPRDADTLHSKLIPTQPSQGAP

[4] = biological target: T4, olfactory receptor family 6 subfamily Q member 1 (gene/pseudogene) (human, UniProt Q8NGQ2 1-317)
T4 construct: HuProt array protein, full-length recombinant from yeast; also called OR6Q1
T4 sequence: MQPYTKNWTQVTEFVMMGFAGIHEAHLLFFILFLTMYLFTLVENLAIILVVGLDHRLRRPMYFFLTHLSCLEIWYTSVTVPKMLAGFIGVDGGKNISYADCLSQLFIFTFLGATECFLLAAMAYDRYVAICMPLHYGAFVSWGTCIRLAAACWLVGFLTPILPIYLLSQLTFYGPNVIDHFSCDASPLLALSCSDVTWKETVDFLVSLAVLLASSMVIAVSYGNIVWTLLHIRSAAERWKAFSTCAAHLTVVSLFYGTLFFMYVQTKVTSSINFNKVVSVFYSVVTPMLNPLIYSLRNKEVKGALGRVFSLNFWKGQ

[5] = biological target: T5, glucuronidase, beta pseudogene (human)
T5 construct: HuProt array protein; labelled _frag; pseudogene product; also called BC025996.2_frag
T5 chain: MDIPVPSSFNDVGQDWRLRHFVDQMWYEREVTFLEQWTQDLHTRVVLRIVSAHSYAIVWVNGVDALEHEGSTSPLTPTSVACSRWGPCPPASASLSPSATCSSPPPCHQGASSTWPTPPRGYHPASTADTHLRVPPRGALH

[6] = biological target: T6, 5-hydroxytryptamine receptor 1E (human, UniProt P28566 1-365)
T6 construct: HuProt array protein, full-length recombinant from yeast; also called HTR1E
T6 sequence (P28566 whole entry): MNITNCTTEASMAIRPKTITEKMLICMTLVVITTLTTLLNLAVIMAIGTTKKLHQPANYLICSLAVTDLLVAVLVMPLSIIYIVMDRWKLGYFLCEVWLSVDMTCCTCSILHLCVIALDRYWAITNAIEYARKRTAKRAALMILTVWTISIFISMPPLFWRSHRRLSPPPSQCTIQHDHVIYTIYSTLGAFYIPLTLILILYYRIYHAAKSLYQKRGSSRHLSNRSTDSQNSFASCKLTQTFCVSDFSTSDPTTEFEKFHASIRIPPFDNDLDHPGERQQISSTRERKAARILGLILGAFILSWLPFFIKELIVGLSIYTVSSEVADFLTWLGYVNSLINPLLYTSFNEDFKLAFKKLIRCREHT

[7] = biological target: T7, microfibril associated protein 3, transcript variant 3 (human, UniProt P55082 19-362)
T7 construct: HuProt array protein, full-length recombinant from yeast; also called MFAP3
T7 sequence (P55082 19-362 limits assumed, change not shown): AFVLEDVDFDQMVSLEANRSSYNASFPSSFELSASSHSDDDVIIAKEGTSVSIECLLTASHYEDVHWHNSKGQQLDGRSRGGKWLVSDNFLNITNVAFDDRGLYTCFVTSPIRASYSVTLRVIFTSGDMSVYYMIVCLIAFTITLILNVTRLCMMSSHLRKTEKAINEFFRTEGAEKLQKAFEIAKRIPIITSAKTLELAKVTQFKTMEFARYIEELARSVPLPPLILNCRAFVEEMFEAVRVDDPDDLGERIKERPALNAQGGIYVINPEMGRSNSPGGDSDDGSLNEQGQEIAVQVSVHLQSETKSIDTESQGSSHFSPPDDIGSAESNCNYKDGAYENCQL

[8] = biological target: T8, zinc finger with KRAB and SCAN domains 4, transcript variant X1 (human, UniProt Q969J2 1-545)
T8 construct: HuProt array protein, full-length recombinant from yeast; also called ZKSCAN4
T8 sequence: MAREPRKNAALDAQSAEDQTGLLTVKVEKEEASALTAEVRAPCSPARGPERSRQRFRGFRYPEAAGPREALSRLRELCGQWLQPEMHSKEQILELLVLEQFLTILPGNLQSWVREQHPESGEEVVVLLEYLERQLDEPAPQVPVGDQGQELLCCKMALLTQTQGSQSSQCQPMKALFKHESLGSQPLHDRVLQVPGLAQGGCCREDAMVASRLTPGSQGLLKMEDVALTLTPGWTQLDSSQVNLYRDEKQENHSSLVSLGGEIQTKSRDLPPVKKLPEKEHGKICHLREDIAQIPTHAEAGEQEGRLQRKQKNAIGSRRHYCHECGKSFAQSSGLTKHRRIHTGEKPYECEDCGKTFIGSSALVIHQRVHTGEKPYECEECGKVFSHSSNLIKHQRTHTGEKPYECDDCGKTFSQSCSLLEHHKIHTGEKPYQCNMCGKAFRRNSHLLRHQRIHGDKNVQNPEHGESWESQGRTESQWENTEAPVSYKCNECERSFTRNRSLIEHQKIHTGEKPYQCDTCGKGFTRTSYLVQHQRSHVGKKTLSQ

[9] = biological target: T9, kelch like family member 40 (human, UniProt Q2TBA0 1-621)
T9 construct: HuProt array protein, full-length recombinant from yeast; also called KLHL40
T9 sequence: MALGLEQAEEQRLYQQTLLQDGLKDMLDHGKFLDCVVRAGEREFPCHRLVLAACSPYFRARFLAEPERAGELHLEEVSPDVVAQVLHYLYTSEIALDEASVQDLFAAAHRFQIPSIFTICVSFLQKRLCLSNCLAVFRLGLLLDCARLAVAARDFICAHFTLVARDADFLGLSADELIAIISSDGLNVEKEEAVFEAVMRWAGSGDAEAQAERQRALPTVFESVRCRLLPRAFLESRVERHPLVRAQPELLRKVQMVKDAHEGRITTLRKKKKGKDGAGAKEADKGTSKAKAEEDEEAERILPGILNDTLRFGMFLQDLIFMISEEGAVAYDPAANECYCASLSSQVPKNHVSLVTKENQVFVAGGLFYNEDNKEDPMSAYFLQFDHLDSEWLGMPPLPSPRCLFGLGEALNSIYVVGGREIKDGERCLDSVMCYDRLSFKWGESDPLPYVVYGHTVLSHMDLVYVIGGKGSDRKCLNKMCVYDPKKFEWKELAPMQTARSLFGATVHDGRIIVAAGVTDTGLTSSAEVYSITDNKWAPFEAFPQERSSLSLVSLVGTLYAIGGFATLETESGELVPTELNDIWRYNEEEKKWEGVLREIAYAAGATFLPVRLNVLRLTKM

[10] = biological target: T10, membrane palmitoylated protein 2, transcript variant 3 (human, UniProt Q14168 1-576)
T10 construct: HuProt array protein, full-length recombinant from yeast; also called MPP2
T10 sequence: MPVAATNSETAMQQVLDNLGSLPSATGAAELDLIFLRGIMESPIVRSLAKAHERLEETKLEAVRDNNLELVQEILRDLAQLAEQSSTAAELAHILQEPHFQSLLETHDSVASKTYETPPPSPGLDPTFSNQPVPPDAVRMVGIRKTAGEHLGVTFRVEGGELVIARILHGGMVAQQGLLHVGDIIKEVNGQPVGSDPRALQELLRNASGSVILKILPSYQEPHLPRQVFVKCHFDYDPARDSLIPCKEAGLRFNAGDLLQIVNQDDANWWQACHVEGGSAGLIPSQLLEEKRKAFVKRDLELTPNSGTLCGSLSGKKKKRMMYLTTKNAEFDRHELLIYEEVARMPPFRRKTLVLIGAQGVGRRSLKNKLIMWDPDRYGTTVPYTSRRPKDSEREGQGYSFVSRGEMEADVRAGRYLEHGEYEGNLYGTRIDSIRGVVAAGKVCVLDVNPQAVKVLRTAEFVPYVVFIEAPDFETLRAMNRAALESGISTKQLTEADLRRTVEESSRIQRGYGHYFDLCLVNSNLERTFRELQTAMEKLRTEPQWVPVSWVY

cancer/testis antigen 1A = biological target: T11, cancer/testis antigen 1A (human, UniProt P78358 1-180)
T11 construct: HuProt array protein, full-length recombinant from yeast; also called CTAG1A
T11 sequence (P78358 whole entry): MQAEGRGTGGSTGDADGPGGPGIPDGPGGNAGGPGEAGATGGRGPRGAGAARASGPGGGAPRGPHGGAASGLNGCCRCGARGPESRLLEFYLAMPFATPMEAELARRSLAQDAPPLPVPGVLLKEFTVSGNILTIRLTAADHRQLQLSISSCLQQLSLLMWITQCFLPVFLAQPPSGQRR

T1 sequence (Q9UNI6 whole entry): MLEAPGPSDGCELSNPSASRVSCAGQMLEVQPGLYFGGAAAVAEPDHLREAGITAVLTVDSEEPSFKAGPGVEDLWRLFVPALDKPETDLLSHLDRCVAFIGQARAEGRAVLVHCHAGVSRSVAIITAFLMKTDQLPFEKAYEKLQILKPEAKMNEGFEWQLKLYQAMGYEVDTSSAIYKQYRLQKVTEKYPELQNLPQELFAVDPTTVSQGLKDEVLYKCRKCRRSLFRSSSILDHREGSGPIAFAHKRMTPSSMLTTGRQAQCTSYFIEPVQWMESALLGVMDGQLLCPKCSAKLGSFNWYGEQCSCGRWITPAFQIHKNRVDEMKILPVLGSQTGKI
T2 sequence (P12814 whole entry, change not shown): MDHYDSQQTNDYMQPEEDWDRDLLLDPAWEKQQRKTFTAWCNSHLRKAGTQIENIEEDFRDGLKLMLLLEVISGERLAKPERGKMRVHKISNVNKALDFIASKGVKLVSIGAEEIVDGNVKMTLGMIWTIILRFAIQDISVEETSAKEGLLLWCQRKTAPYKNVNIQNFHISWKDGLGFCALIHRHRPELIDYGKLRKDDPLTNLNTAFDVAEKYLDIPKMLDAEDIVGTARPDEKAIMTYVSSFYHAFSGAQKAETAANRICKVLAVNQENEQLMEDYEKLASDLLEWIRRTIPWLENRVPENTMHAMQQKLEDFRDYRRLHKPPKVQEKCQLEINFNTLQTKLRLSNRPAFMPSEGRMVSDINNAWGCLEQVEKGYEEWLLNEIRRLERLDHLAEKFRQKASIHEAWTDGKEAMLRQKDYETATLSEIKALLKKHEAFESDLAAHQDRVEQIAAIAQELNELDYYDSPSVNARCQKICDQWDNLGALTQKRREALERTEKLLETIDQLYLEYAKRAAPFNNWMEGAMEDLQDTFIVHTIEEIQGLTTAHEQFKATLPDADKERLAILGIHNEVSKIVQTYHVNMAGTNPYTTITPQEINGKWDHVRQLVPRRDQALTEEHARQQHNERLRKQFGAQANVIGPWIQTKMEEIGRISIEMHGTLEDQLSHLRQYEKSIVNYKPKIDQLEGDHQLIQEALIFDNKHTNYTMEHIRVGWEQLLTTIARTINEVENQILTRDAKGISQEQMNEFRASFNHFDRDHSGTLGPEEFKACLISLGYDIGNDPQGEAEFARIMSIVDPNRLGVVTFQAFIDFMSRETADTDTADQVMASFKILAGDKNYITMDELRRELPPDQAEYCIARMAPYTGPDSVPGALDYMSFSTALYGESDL

B1: TBRE1007 (antibody, V domains shown)
VH: QVQLQESGPGLVRPSETLSLTCDVSGYLISSGYYWGWVRQPPGKGLEWIGSVYHSGNAYYNPSLKGRVTMSVDTSKNQFSLKLTSVAAEDTAVYYCAREHRSGYQRYWGQGTLVTVSS
VL: IQMTQSPSSLSASVGDRVTITCRASQAIANSLAWYQQRPGKAPKLLIYAASSLESGVPSRFSGSGSGTDYTLTISSLQPEDFATYYCQQYYINPRTFGQGTKVEIKR
notes: detected with anti-human IgG Fc
binding result [1]: binds
binding result [2]: binds

B2: TBRE1013 (antibody, V domains shown)
VH: EVQLVESGGGLVKPGGSLRLSCAGSGFSFSSYSMNWVRQAPGKGLEWVSSISSKSSSKNYIDSVKNRFIISRDNAKNSLYLQMNSLRAEDTAVYYCARDLELIIAAGAPLDHWGQGTLVTVSS
VL: DIQMTQSPSSLSASVGDRVTITCRASQSIKNYVNWYQQKPGEAPNLLIFAASNLQSGVPSRFTGSGSGTDFSLTISSLQPEDFAAYYCQQTYSHPRTFGQGTRVEIKR
notes: VH/VL only
binding result [3]: binds

B3: TBLA1010 (antibody, V domains shown)
VH: EVQLVESGGGLVQPGRSLRLSCAASGFPFGDYAMHWVRQAPGKGLEWVSGIGWDSGGIGYADSVKGRFTISRDIAKNSLYLEINSLRPDDTALYYCAKAAATLPYFRFAMDVWGQGTPVTVSS
VL: EIVLTQSPGTLSLSPGERATLSCRASQSVSSSYLAWYQQKPGQAPRLLIFGASTRASGIPDRFSGRGSGTEFTLTISRLEPEDFAVYYCQQYDSSPFTFGPGTKVEIKR
notes: as for B1
binding result [4]: binds

B4: TBRE1006 (antibody, V domains shown)
VH: QVQLVQSGAEVKKPGASVKVSCKASGYIFTSYAIHWVRQAPGQRLEWMGWINAGNGNTKYSQKFQGRVTITRDTSANTAYMELSSLRSEDTAIYYCARDIAVAITNYFGSWGQGTLVTVSS
VL: EIVLTQSPATLSLSPGERATLSCRASQSVGSYLAWYQQKPGQAPRLLIYDASNRATGIPARFSGSGSGTDFTLTISSLEPEDFAVYYCQQGSNWLALTFGGGTKVEIKR
notes: as for B1
binding result [5]: binds

B5: TBLA1013 (antibody, V domains shown)
VH: EVQLLESGGGLVQPGGSLTLSCVGSRFTFSSYAMNWVRQSPGRGLEWVASISATTGSTYYTDSVEGRFTISRDNSRDTLYLQMNSLRADDTALYYCVRSFVGAVPAYPNFDFWGPGTLVTVSS
VL: PSGLTQPPSASGTPGQRVTMSCSGSSSNIGRNYVYWYQQLPGAAPKLLIYRDNQRPSGVPDRFSGSKSGTSASLAISGLRSEDEADYYCAAWDDNVSGPGFGAGTRLTVLG
notes: as for B1
binding result [6]: binds

B6: TBRE1002 (antibody, V domains shown)
VH: QVQLVESGGGVVQPGGSLRLSCGASGFAFSSNGMHWVRQAPGKGLEWVAFIHYDGRNKHYTDSVKGRFAISVDDSKTTLYLQMSSLKTEDTAVYYCVKDSRVTGQSSGYIFDSWGQGTLVTVSS
VL: ETVMTQSPATLSVSPGDRATLSCRASQNVNFNLAWYQQKPGQAPRLLIYDASTRATGIPARFSGSASGTEFTLTINSLQSEDFAVYYCQQYNNWWTFGQGTKLEIKR
notes: as for B1
binding result [7]: binds

The remaining lines, values ahead:

binding result [8]: binds
B7: TBRE1009 (antibody, V domains shown)
VH: EVQLVESGGGLVKPGGSLRLSCVGSGFTFSNYSMNWVRQAPGRGLEWVSSISWGSSYINYADSVKGRFTISRDNAKNSLYLQMTSLTAEDTAVYYCACRRIYQGFDPWGQGTLVT
VL: DIQMTQSPSSLSASVGDRVTISCRASHNINTYLNWYQHKPGKAPKIVIYGASSLQSGVPSRFSGSGSGTDFSLTISSLQREDFATYFCQQSFNTVLTFGGGTRVDI
notes: as for B1

binding result [9]: binds
binding result [10]: binds
B8: TBRE1012 (antibody, V domains shown)
VH: QVQLQESGPGLVKPTQTLSLTCTVSGGSISSGSYYWNWIRQPAGKGLEWIGNIYTSGNTDYNPSLKSRVTISLDTSKNQVSLNLTSVTAADTAVYYCATTPSSSWYWYFDPWGQGTLVTVSS
VL: DLQMTQSPSSLSASIGDRVTITCRASQSISTYFNWYQQKPGKAPKLLIYAASSLQSGVPSRFSGSGSGTDFTLTITSLQPEDFATYYCQQTYSNPWTFGQGTKVDFKR
notes: as for B1

binding result (cancer/testis antigen 1A): binds
B9: TBLA1012 (antibody, V domains shown)
VH: LLQLVESGGGVVQPGRSLRLSCAASGFTFTRHGFHWVRQAPGKGLEWVAVISSDGRKIHYTDSVKGRFVISRDDSDNTVYLHMNSLRLGDTALYYCARDSGGTPGPYWGQGTLVTVSS
VL: DVVMTQSPLSLPVTLGQPASISCRSSQSLVHSDGNTYLNWFQQRPGQSPRRLIYMVSNRDSGVPDRFSGSGSGTDFTLKISRVEAEDVGVYYCLQGTHWPPTIGQGTKVEIE
notes: as for B1
